To fix the notation:
B1: PMS1 protein homolog 1, residues 572 to 637; numbered along this chain, P54277 (parent)
chain: KKPMSASALFVQDHRPQFLIENPKTSLEDATLQIEELWKTLSEEEKLKYEEKATKDLERYNSQMKR
B2: TOX high mobility group box family member 3, residues 256 to 323; numbered along this chain, O15405 (parent)
chain: QKPVSAYALFFRDTQAAIKGQNPNATFGEVSKIVASMWDSLGEEQKQVYKRKTEAAKKEYLKALAAYR

± gives the uncertainty stated by the source.

The variants in the first series derive from B1. Nature of the series: abundance fitness (aPCA) (normalised: wild type 0, dead -1); higher = more abundant; growth selection in yeast, the domain comes from the species named. To be noted: Homo sapiens.
Take KKPMSASALFVQDHRPQFLIENPKTSLEDATLQIEELWKTLSEEEKLKYEEKATKDLERYNSQMKY: the abundance fitness was -0.069 ± 0.13. The same measure, in the same setting: the result for KKPMSASALFVQDHRPQFLIENPKTSLEDATLQIEELWKTLSEEEKLKYEEKATKDLERYNSQMKW reads -0.261 ± 0.17.

Take KKPMSASALFVQDHRPQFLIENPKTSLEDATLQIEELWKTLSEEEKLKYEEKATKDLERYNSQMKV: the abundance fitness was found to be 0.097 ± 0.069.

As to KKPMSASALFVQDHRPQFLIENPKTSLEDATLQIEELWKTLSEEEKLKYEEKATKDLERYNSQMKT, the abundance fitness worked out at 0.019 ± 0.12.

Variants of B2 are the subject of a further series. The series is described as above. To be noted: Homo sapiens.
Turning to QKPVKAYALFFRDTQAAIKGQNPNATFGEVSKIVASMWDSLGEEQKQVYKRKTEAAKKEYLKALAAYR, the abundance fitness was -0.166 ± 0.14. As to QKPVNAYALFFRDTQAAIKGQNPNATFGEVSKIVASMWDSLGEEQKQVYKRKTEAAKKEYLKALAAYR, the abundance fitness was 0.115 ± 0.16. In the case of QKPVGAYALFFRDTQAAIKGQNPNATFGEVSKIVASMWDSLGEEQKQVYKRKTEAAKKEYLKALAAYR, the abundance fitness is -0.091 ± 0.052. Consider QKPVIAYALFFRDTQAAIKGQNPNATFGEVSKIVASMWDSLGEEQKQVYKRKTEAAKKEYLKALAAYR, for which the abundance fitness is -0.94 ± 0.39. In the case of QKPVAAYALFFRDTQAAIKGQNPNATFGEVSKIVASMWDSLGEEQKQVYKRKTEAAKKEYLKALAAYR, the abundance fitness was -0.314 ± 0.066.

On to QKPVCAYALFFRDTQAAIKGQNPNATFGEVSKIVASMWDSLGEEQKQVYKRKTEAAKKEYLKALAAYR, for which the abundance fitness was -0.074 ± 0.11. On the same count and under the same terms, then QKPVEAYALFFRDTQAAIKGQNPNATFGEVSKIVASMWDSLGEEQKQVYKRKTEAAKKEYLKALAAYR, with -0.022 ± 0.066; and QKPVDAYALFFRDTQAAIKGQNPNATFGEVSKIVASMWDSLGEEQKQVYKRKTEAAKKEYLKALAAYR, with 0.101 ± 0.074; and QKPVPAYALFFRDTQAAIKGQNPNATFGEVSKIVASMWDSLGEEQKQVYKRKTEAAKKEYLKALAAYR, with -0.458 ± 0.11.

On to QKHVSAYALFFRDTQAAIKGQNPNATFGEVSKIVASMWDSLGEEQKQVYKRKTEAAKKEYLKALAAYR, for which the abundance fitness is -0.068 ± 0.059. The same measure, in the same setting: the result for QKMVSAYALFFRDTQAAIKGQNPNATFGEVSKIVASMWDSLGEEQKQVYKRKTEAAKKEYLKALAAYR reads -0.296 ± 0.096; that for QKAVSAYALFFRDTQAAIKGQNPNATFGEVSKIVASMWDSLGEEQKQVYKRKTEAAKKEYLKALAAYR, -0.213 ± 0.057; that for QKCVSAYALFFRDTQAAIKGQNPNATFGEVSKIVASMWDSLGEEQKQVYKRKTEAAKKEYLKALAAYR, -0.342 ± 0.076. Take QKEVSAYALFFRDTQAAIKGQNPNATFGEVSKIVASMWDSLGEEQKQVYKRKTEAAKKEYLKALAAYR: the abundance fitness is -0.199 ± 0.2. On the same count and under the same terms, the result for QKSVSAYALFFRDTQAAIKGQNPNATFGEVSKIVASMWDSLGEEQKQVYKRKTEAAKKEYLKALAAYR reads -0.052 ± 0.046; that for QKNVSAYALFFRDTQAAIKGQNPNATFGEVSKIVASMWDSLGEEQKQVYKRKTEAAKKEYLKALAAYR, -0.163 ± 0.083.

Consider QKRVSAYALFFRDTQAAIKGQNPNATFGEVSKIVASMWDSLGEEQKQVYKRKTEAAKKEYLKALAAYR, for which the abundance fitness was -0.157 ± 0.053.

QKYVSAYALFFRDTQAAIKGQNPNATFGEVSKIVASMWDSLGEEQKQVYKRKTEAAKKEYLKALAAYR: the abundance fitness was -0.332 ± 0.12. Consider QKFVSAYALFFRDTQAAIKGQNPNATFGEVSKIVASMWDSLGEEQKQVYKRKTEAAKKEYLKALAAYR, for which the abundance fitness was found to be 0.125 ± 0.081. On the same count and under the same terms, then QKIVSAYALFFRDTQAAIKGQNPNATFGEVSKIVASMWDSLGEEQKQVYKRKTEAAKKEYLKALAAYR, with -0.228 ± 0.096; and QKTVSAYALFFRDTQAAIKGQNPNATFGEVSKIVASMWDSLGEEQKQVYKRKTEAAKKEYLKALAAYR, with -0.142 ± 0.062. The same measure, in the same setting: then QKLVSAYALFFRDTQAAIKGQNPNATFGEVSKIVASMWDSLGEEQKQVYKRKTEAAKKEYLKALAAYR, with -0.145 ± 0.045.

For the variant QKKVSAYALFFRDTQAAIKGQNPNATFGEVSKIVASMWDSLGEEQKQVYKRKTEAAKKEYLKALAAYR, the abundance fitness was -0.035 ± 0.072.

In the case of QKDVSAYALFFRDTQAAIKGQNPNATFGEVSKIVASMWDSLGEEQKQVYKRKTEAAKKEYLKALAAYR, the abundance fitness was determined as 0.375 ± 0.15. As for QKGVSAYALFFRDTQAAIKGQNPNATFGEVSKIVASMWDSLGEEQKQVYKRKTEAAKKEYLKALAAYR, the abundance fitness is 0.033 ± 0.049.

In the case of QKQVSAYALFFRDTQAAIKGQNPNATFGEVSKIVASMWDSLGEEQKQVYKRKTEAAKKEYLKALAAYR, the abundance fitness is -0.292 ± 0.096. For QKVVSAYALFFRDTQAAIKGQNPNATFGEVSKIVASMWDSLGEEQKQVYKRKTEAAKKEYLKALAAYR, the abundance fitness was -0.14 ± 0.088. Same read-out and setting: the result for QKPESAYALFFRDTQAAIKGQNPNATFGEVSKIVASMWDSLGEEQKQVYKRKTEAAKKEYLKALAAYR reads 0.155 ± 0.064; that for QKPCSAYALFFRDTQAAIKGQNPNATFGEVSKIVASMWDSLGEEQKQVYKRKTEAAKKEYLKALAAYR, -0.097 ± 0.051; that for QKPGSAYALFFRDTQAAIKGQNPNATFGEVSKIVASMWDSLGEEQKQVYKRKTEAAKKEYLKALAAYR, -0.005 ± 0.063. Take QKPHSAYALFFRDTQAAIKGQNPNATFGEVSKIVASMWDSLGEEQKQVYKRKTEAAKKEYLKALAAYR: the abundance fitness is -0.182 ± 0.081.

In the case of QKPRSAYALFFRDTQAAIKGQNPNATFGEVSKIVASMWDSLGEEQKQVYKRKTEAAKKEYLKALAAYR, the abundance fitness was -0.109 ± 0.043.

Take QKPTSAYALFFRDTQAAIKGQNPNATFGEVSKIVASMWDSLGEEQKQVYKRKTEAAKKEYLKALAAYR: the abundance fitness is -0.073 ± 0.079. For QKPASAYALFFRDTQAAIKGQNPNATFGEVSKIVASMWDSLGEEQKQVYKRKTEAAKKEYLKALAAYR, the abundance fitness is -0.202 ± 0.079. Take QKPYSAYALFFRDTQAAIKGQNPNATFGEVSKIVASMWDSLGEEQKQVYKRKTEAAKKEYLKALAAYR: the abundance fitness is -0.24 ± 0.097. QKPSSAYALFFRDTQAAIKGQNPNATFGEVSKIVASMWDSLGEEQKQVYKRKTEAAKKEYLKALAAYR: the abundance fitness was -0.112 ± 0.057.

The record behind these values is the Human Domainome abundance scans (Beltran et al. 2025).
